One substance from publication PMC9019507, “OAT10/SLC22A13 Acts as a Renal Urate Re-Absorber: Clinico-Genetic and Functional Analyses With Pharmacological Impacts” (Frontiers in Pharmacology, 2022) can be followed below.

This data set has as its system T1, O=c1[nH]c(=O)c2[nH]c(=O)[nH]c2[nH]1.
T1 construct: full-length human OAT10 wild-type, EGFP-fused (pEGFP-N1)
The experiment in a line: cells, lysate or membranes. The format is cell-based, Homo sapiens. As to conditions: Cl^-.

Sequence of OAT10/SLC22A13 (Homo sapiens) (chain, as listed by the source): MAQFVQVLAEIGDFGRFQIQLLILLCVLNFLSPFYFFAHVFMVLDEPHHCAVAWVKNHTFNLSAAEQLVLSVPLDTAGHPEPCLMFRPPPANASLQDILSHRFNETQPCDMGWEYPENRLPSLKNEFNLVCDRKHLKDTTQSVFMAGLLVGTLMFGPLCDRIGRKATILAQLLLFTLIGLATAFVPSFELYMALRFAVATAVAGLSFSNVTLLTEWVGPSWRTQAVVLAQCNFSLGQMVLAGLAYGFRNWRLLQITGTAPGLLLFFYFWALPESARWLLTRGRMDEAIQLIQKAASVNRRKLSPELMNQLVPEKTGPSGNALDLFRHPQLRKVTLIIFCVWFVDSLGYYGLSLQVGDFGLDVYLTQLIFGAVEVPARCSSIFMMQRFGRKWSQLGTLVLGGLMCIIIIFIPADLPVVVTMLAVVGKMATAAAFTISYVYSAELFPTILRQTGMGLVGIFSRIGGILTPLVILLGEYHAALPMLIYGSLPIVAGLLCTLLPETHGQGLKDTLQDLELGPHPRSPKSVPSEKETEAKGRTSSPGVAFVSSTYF

As to OAT10/SLC22A13 (Homo sapiens), the Km stood at 558 µM.
